Test [1] has as its target Human IL-11, endogenously produced by TGFβ1-stimulated human cells (human) (UniProt P20809). The experiment in a line: cell-based or functional assay.
In test [2] the target is Mouse IL-11, endogenously produced by TGFβ1-stimulated mouse atrial fibroblasts (mouse) (UniProt P47873). Kind of test: cell-based or functional assay.
Test [3] has as its target T1, Human IL-11Rα endogenously expressed on primary human cells (human, UniProt Q14626 23-422).
T1 sequence (looked up): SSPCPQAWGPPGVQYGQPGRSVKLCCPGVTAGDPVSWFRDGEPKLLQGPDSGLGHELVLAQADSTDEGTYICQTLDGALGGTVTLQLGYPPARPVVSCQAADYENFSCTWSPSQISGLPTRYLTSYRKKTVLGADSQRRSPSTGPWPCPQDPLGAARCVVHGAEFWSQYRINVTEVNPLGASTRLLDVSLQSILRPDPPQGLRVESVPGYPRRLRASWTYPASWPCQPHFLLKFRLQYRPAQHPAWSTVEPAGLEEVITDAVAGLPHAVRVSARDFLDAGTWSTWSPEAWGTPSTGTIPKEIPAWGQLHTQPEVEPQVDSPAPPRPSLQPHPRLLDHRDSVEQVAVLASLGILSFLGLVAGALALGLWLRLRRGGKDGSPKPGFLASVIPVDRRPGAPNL
Kind of test: cell-based or functional assay.

The target of test [4] is T1, Human IL-11Rα endogenously expressed on …. Kind of test: cell-based or functional assay. This is another data set of the same source.
Test [5] has the same target. The experiment in a line: cell-based or functional assay. This is another data set of the same source.
The target of test [6] is T2, IL-11Rα as used in the Biacore kinetics of Example 14 (UniProt Q14626 23-363, limits assumed).
T2 sequence (looked up): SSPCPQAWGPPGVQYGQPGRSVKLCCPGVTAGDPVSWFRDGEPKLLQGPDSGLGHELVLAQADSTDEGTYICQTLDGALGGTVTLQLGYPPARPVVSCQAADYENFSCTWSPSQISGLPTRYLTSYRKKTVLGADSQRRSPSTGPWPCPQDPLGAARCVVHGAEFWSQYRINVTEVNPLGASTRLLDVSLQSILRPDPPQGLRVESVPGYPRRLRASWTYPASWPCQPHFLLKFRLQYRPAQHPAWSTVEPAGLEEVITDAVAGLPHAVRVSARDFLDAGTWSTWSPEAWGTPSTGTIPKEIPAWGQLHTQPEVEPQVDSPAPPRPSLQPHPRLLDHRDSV
Kind of test: SPR (Biacore T200), multi-cycle kinetics, 25 C, HBS-P+ pH 7.4 with 0.1% BSA. The procedure:
The six antibodies were assessed by multi-cycle kinetics analysis at a final concentration of 1 μg/ml, run at 25° C. with HBS-P+ running buffer (pH 7.4) containing 0.1% BSA using a Biacore T200 instrument.
The relative KD was calculated by dividing the KD of the humanised variant by that of the 9A7 antibody assayed in the same experiment. All six humanised antibodies bound to IL-11R within two-fold of 9A7 (SEQ ID NO:7 and 13).

Mouse IL-11, endogenously produced by TGFβ1-stimulated mouse atrial fibroblasts (mouse), sequence (P47873 22-199 limits assumed): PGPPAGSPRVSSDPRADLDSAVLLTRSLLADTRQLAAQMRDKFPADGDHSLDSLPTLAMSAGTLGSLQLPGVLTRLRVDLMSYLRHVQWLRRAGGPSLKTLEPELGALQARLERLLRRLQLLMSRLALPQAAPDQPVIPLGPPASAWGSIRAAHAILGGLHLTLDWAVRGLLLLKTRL
Human IL-11, endogenously produced by TGFβ1-stimulated human cells (human), sequence (P20809 22-199 limits assumed): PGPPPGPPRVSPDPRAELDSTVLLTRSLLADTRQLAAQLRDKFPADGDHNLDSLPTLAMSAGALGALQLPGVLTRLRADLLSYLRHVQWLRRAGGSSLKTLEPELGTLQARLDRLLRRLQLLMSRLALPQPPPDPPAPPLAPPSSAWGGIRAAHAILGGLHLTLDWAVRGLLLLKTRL

In the case of “Commercial monoclonal mouse anti-IL-11 antibody (Monoclonal Mouse IgG2A; Clone #22626; Catalog No. MAB218; R&D Systems)”, in test [1], the fold change in percentage of αSMA-positive (activated) human atrial fibroblasts against unstimulated cultures, TGFβ1 5 ng/ml, 24 h was found to be 0.89 fold. Also, the fold change in percentage of αSMA-positive (activated) mouse atrial fibroblasts against unstimulated cultures, TGFβ1, 24 h in test [2] amounted to 1.44 fold.

B1: Humanised BSO-9A7 variant VH3/VL3 (antibody, V domains shown)
VH: QVQLVQSGAEVKKPGASVKVSCKASGYTFTNYWMHWLRQRPGQGLEWIGNIGPSDSKTHYNQKFKDRATLTVDKSTSTAYMELSSLRSEDTAVYYCARGDYVLFTYWGQGTLVTVSS
VL: DIVLTQSPATLSLSPGERATLSCRASQSISNNLHWYQQKPGQAPRLLIKYASQSISGIPARFSGSGSGTDFTLTISSLEPEDFAVYFCQQSYSWPLTFGQGTKLEIK
notes: Variable domains only
Consider B1, for which, in test [3], the “IC50 of inhibition of MMP2 secretion, human hepatic stellate cells + TGFβ1 5 ng/ml (panel 'VH3/VL3')” value came to 0.0233 µg/mL. Moreover, in test [4], the “IC50 of inhibition of TIMP1 secretion, primary human lung fibroblasts + TGFB1 5 ng/ml (panel 'VH3/VL3')” value is 0.0274 µg/mL. The “IC50 of inhibition of MMP2 secretion, primary human atrial fibroblasts + TGFβ1 (panel 'VH3/VL3')” value in test [5] is 0.0326 µg/mL. Further, in test [6], the Kd – broadly, a measure of binding affinity in units of concentration – is 3.61 nM; the koff (usually the rate constant with which the complex falls apart) amounted to 0.000751 s⁻¹; the kon (commonly the rate constant with which the complex forms) came out at 208000 M⁻¹ s⁻¹; the “relative KD (KD divided by KD of 9A7)” value is 0.84 ratio to 9A7.

B2: Humanised BSO-9A7 variant VH3/VL4 (antibody, V domains shown)
VH: QVQLVQSGAEVKKPGASVKVSCKASGYTFTNYWMHWLRQRPGQGLEWIGNIGPSDSKTHYNQKFKDRATLTVDKSTSTAYMELSSLRSEDTAVYYCARGDYVLFTYWGQGTLVTVSS
VL: DIVLTQSPATLSLSPGERATLSCRASQSISNNLHWYQQKPGQAPRLLIKYASQSISGIPARFSGSGSGTDFTLTISSLEPEDFAVYYCQQSYSWPLTFGQGTKLEIK
notes: Variable domains only
Consider B2, for which, in test [6], binding was put at a Kd of 3.71 nM, the koff was 0.000747 s⁻¹, the kon was found to be 201000 M⁻¹ s⁻¹ and the “relative KD (KD divided by KD of 9A7)” value is 0.86 ratio to 9A7.

B3: Humanised BSO-9A7 variant VH4/VL2 (antibody, V domains shown)
VH: QVQLVQSGAEVKKPGASVKVSCKASGYTFTNYWMHWLRQRPGQGLEWIGNIGPSDSKTHYNQKFKDRVTMTVDKSTSTAYMELSSLRSEDTAVYYCARGDYVLFTYWGQGTLVTVSS
VL: DIVLTQSPATLSLSPGERATLSCRASQSISNNLHWYQQKSGQAPRLLIKYASQSISGIPARFSGSGSGTDFTLTISSLETEDFAVYFCQQSYSWPLTFGQGTKLEIK
notes: Variable domains only
As to B3, the “IC50 of inhibition of MMP2 secretion, primary human atrial fibroblasts + TGFβ1 (panel 'VH4/VL2')” value in test [5] was determined as 0.0111 µg/mL. Moreover, in test [6], the Kd came out at 5.67 nM, the koff amounted to 0.000932 s⁻¹, the kon stood at 164000 M⁻¹ s⁻¹ and the “relative KD (KD divided by KD of 9A7)” value is 1.32 ratio to 9A7.

B4: Humanised BSO-9A7 variant VH3/VL2 (antibody, V domains shown)
VH: QVQLVQSGAEVKKPGASVKVSCKASGYTFTNYWMHWLRQRPGQGLEWIGNIGPSDSKTHYNQKFKDRATLTVDKSTSTAYMELSSLRSEDTAVYYCARGDYVLFTYWGQGTLVTVSS
VL: DIVLTQSPATLSLSPGERATLSCRASQSISNNLHWYQQKSGQAPRLLIKYASQSISGIPARFSGSGSGTDFTLTISSLETEDFAVYFCQQSYSWPLTFGQGTKLEIK
notes: T0003 heads the columns 'Heavy chain' and 'Light chain', but the entries are variable domains
On to B4, for which, in test [6], binding was characterised by a dissociation constant (Kd) of 3.63 nM, the koff turned out to be 0.000801 s⁻¹, the kon is 221000 M⁻¹ s⁻¹ and the “relative KD (KD divided by KD of 9A7)” value was 0.85 ratio to 9A7.

B5: Humanised BSO-9A7 variant VH4/VL3 (antibody, V domains shown)
VH: QVQLVQSGAEVKKPGASVKVSCKASGYTFTNYWMHWLRQRPGQGLEWIGNIGPSDSKTHYNQKFKDRVTMTVDKSTSTAYMELSSLRSEDTAVYYCARGDYVLFTYWGQGTLVTVSS
VL: DIVLTQSPATLSLSPGERATLSCRASQSISNNLHWYQQKPGQAPRLLIKYASQSISGIPARFSGSGSGTDFTLTISSLEPEDFAVYFCQQSYSWPLTFGQGTKLEIK
notes: Variable domains only
With B5, the “IC50 of inhibition of MMP2 secretion, primary human atrial fibroblasts + TGFβ1 (panel 'VH4/VL3')” value in test [5] is 0.0647 µg/mL. Besides, in test [6], binding was characterised by a dissociation constant (Kd) of 5.57 nM, the koff was 0.000992 s⁻¹, the kon turned out to be 178000 M⁻¹ s⁻¹ and the “relative KD (KD divided by KD of 9A7)” value was 1.3 ratio to 9A7.

B6: Humanised BSO-9A7 variant VH4/VL4 (antibody, V domains shown)
VH: QVQLVQSGAEVKKPGASVKVSCKASGYTFTNYWMHWLRQRPGQGLEWIGNIGPSDSKTHYNQKFKDRVTMTVDKSTSTAYMELSSLRSEDTAVYYCARGDYVLFTYWGQGTLVTVSS
VL: DIVLTQSPATLSLSPGERATLSCRASQSISNNLHWYQQKPGQAPRLLIKYASQSISGIPARFSGSGSGTDFTLTISSLEPEDFAVYYCQQSYSWPLTFGQGTKLEIK
notes: Variable domains only; also called printed once as VH4/VH4
Turning to B6, the “IC50 of inhibition of MMP2 secretion, human hepatic stellate cells + TGFβ1 5 ng/ml (panel 'VH4/VL4')” value in test [3] was 0.00315 µg/mL. For the same molecule, the “IC50 of inhibition of TIMP1 secretion, primary human lung fibroblasts + TGFB1 5 ng/ml (panel 'VH4/VL4')” value in test [4] was 0.00419 µg/mL. Also, in test [6], the Kd came to 5.55 nM, the koff was 0.000781 s⁻¹, the kon stood at 141000 M⁻¹ s⁻¹ and the “relative KD (KD divided by KD of 9A7)” value was 1.29 ratio to 9A7.

Source of the values: US20190389957A1 (SINGAPORE HEALTH SERVICES PTE, published 2019).
